Assay [1] has as its target activated coagulation factor XI (UniProt P03951). In words: stoichiometry of inhibition titration (residual protease activity); varying ratios of AAT variant to protease incubated at ambient temperature for 2 h, residual activity determined at 37°C, line regressed to zero residual activity.
For the next assay, the target named is factor XIIa (UniProt P00748). In words: inhibition kinetics (residual protease activity on chromogenic substrate); pseudo-first-order, at least a 10:1 molar ratio of AAT variant to protease (5–75 nM), 37°C, discontinuous method; k2 = kobs divided by the initial AAT variant concentration.
The next assay concerns the target thrombin (UniProt P00734). The assay is described as above.
A further assay has as its target activated protein C (UniProt P04070). The description is as above.
Assay [2] has as its target activated coagulation factor XI (UniProt P03951). Described as above.

Chain of UniProt P03951 (P03951 19-387, chain 1 of 2): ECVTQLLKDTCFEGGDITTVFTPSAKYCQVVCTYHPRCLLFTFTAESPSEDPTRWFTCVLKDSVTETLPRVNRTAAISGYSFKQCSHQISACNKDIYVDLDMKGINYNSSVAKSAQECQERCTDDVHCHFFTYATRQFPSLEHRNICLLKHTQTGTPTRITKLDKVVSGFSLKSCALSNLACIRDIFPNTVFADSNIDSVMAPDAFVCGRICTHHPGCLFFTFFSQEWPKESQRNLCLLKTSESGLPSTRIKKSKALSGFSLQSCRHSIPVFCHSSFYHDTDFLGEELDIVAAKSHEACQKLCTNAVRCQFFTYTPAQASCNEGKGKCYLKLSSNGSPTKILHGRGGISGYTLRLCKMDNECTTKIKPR
Chain of UniProt P03951 (P03951 388-624, chain 2 of 2): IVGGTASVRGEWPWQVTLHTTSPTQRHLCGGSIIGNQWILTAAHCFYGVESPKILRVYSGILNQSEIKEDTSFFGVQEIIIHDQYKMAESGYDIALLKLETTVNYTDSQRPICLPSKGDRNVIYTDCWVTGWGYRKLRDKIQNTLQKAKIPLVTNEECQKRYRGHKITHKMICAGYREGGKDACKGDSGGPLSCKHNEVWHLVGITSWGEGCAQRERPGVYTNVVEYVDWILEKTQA

For “alpha-1 antitrypsin M358R (from UniProt P01009 25-418) (natural protein)”, the SI (stoichiometry of inhibition) in assay [1] worked out at 2.7. In addition, the k2 (second-order rate constant of inhibition) came out at 23000 M⁻¹ s⁻¹ with factor XIIa, 180000 M⁻¹ s⁻¹ with thrombin, 25000 M⁻¹ s⁻¹ in the assay with activated protein C and 140000 M⁻¹ s⁻¹ in assay [2].

Source of the values: article PMC8017132.
